Drawing on EP1379283B1, “IDENTIFICATION OF TARGET-SPECIFIC FOLDING SITES IN PEPTIDES AND PROTEINS” (Palatin Technologies, Inc., priority 2000, dated 2002), this text covers % Inhibition for 27 substances.

Test [1] addresses uPA receptor (urokinase-type plasminogen activator receptor) on U937 cells (UniProt Q03405). As to the kind of experiment: competition receptor-binding assay on U937 cells, ATF as competing ligand, metallopeptide at 1 µM.
In test [2] the target is vasopressin-1 receptor of rat liver cell membranes (rat) (UniProt P30560). In words: competition with 3H-vasopressin-1 antagonist on rat liver membranes, metallopeptide at 1 µM.
vasopressin-1 receptor of rat liver cell membranes (rat), sequence (P30560 whole entry): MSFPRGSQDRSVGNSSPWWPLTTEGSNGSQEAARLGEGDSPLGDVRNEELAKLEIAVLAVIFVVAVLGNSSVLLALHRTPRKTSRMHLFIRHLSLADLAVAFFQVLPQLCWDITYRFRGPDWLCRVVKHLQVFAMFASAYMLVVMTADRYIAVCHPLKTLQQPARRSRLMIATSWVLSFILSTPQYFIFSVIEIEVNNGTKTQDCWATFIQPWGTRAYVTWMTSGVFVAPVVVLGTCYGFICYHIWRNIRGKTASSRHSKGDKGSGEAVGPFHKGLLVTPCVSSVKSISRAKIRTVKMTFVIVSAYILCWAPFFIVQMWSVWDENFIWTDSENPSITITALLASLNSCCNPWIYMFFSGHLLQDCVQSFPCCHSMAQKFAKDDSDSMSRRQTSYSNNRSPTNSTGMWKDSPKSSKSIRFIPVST
Test [3] has as its target oxytocin receptor of rat uterus cell membranes (rat) (UniProt P70536). As to the kind of experiment: competition with 3H-oxytocin on rat uterus membranes, metallopeptide at 1 µM.
In test [4] the target is angiotensin-II receptor of human neuroblastoma cells (KAN-TS) (human). As to the kind of experiment: competition with 125I-Tyr4,Sar1,Ile8-angiotensin II on KAN-TS human neuroblastoma cell membranes, metallopeptide at 1 µM.
angiotensin-II receptor of human neuroblastoma cells (KAN-TS) (human), sequence (P30556 whole entry): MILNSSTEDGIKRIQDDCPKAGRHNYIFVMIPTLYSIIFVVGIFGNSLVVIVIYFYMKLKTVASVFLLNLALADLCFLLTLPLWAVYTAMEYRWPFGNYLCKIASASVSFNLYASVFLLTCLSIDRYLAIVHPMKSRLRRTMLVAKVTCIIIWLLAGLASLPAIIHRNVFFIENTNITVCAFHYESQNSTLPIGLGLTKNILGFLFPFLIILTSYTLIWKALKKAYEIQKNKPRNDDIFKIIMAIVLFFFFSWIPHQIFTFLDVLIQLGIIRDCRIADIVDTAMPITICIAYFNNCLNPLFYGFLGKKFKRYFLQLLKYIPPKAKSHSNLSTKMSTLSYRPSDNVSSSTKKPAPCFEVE

oxytocin receptor of rat uterus cell membranes (rat), sequence (P70536 whole entry): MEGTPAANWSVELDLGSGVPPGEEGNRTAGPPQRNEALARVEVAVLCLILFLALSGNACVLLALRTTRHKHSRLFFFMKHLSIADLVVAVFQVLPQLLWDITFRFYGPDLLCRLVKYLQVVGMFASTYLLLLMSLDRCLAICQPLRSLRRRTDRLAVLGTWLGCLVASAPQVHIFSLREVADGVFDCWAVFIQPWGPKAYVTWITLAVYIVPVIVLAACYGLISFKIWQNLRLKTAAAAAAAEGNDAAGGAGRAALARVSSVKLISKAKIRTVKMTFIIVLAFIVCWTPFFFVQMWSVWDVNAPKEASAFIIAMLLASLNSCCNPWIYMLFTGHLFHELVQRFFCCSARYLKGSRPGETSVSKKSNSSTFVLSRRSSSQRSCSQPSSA
uPA receptor (urokinase-type plasminogen activator receptor) on U937 cells, sequence (Q03405 23-305): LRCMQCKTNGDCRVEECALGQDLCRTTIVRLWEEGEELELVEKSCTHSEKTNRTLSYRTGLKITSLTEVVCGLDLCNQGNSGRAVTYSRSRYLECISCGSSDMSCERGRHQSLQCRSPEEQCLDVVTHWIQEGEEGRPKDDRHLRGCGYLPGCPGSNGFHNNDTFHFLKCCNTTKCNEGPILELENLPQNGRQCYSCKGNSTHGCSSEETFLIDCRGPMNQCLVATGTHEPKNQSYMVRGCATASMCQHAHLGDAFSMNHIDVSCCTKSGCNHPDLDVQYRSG

As for “Re-complexed Ac-Val-Ser-Asn-Cys-Lys-Tyr-Phe-Ser-Asn-Ile-His-Trp-NH2 (SEQ ID NO:5) (peptide)”, in test [1], the % Inhibition at 1 µM was 0%.

“Re-complexed Ac-Val-Ser-Asn-Lys-Cys-Tyr-Phe-Ser-Asn-Ile-His-Trp-NH2 (SEQ ID NO:6) (peptide)”: the % Inhibition at 1 µM in test [1] came out at 13%.

“Re-complexed Ac-Val-Ser-Asn-Lys-Tyr-Cys-Phe-Ser-Asn-Ile-His-Trp-NH2 (SEQ ID NO:7) (peptide)”: the % Inhibition at 1 µM in test [1] amounted to 18%.

Consider “Re-complexed Ac-Val-Ser-Asn-Lys-Tyr-Phe-Cys-Ser-Asn-Ile-His-Trp-NH2 (SEQ ID NO:8) (peptide)”, for which the % Inhibition at 1 µM in test [1] amounted to 0%.

Turning to “Re-complexed Ac-Val-Ser-Asn-Lys-Tyr-Phe-Ser-Asn-Cys-Ile-His-Trp-NH2 (SEQ ID NO:10) (peptide)”, in test [1], the % Inhibition at 1 µM worked out at 32%.

Consider “Re-complexed Ac-Val-Ser-Asn-Lys-Tyr-Phe-Ser-Asn-Ile-Cys-His-Trp-NH2 (SEQ ID NO:11) (peptide)”, for which the % Inhibition at 1 µM in test [1] came to 0%.

In the case of “Re-complexed Ac-Val-Ser-Asn-Lys-Tyr-Phe-Ser-Asn-Ile-His-Cys-Trp-NH2 (SEQ ID NO:3) (peptide)”, the % Inhibition at 1 µM in test [1] was 106%.

For the substance “Re-complexed Ac-Val-Ser-Asn-Lys-Tyr-Phe-Ser-Asn-Ile-His-Trp-Cys-NH2 (SEQ ID NO:12) (peptide)”, the % Inhibition at 1 µM in test [1] is 0%.

Consider “Re-complexed Ac-Val-Ser-Asn-Lys-Tyr-Phe-Ser-Cys-Asn-Ile-His-Trp-NH2 (SEQ ID NO:9) (peptide)”, for which, in test [1], the % Inhibition at 1 µM amounted to 35%.

Regarding “Re-complexed Ac-Val-Ser-Cys-Asn-Lys-Tyr-Phe-Ser-Asn-Ile-His-Trp-NH2 (SEQ ID NO:4) (peptide)”, the % Inhibition at 1 µM in test [1] turned out to be 0%.

For “Re-complexed Ala-Tyr-Cys-Ile-Gln-Asn-Ala-Pro-Leu-Gly-NH2 (SEQ ID NO:158) (peptide)”, the % Inhibition at 1 µM in test [2] was found to be 1%; in test [3], 6%.

In the case of “Re-complexed Ala-Tyr-Ile-Cys-Gln-Asn-Ala-Pro-Leu-Gly-NH2 (SEQ ID NO:157) (peptide)”, the % Inhibition at 1 µM in test [2] and in test [3] was 0% in each case.

As for “Re-complexed Ala-Tyr-Ile-Gln-Asn-Ala-Ala-Cys-Leu-Gly-NH2 (SEQ ID NO:152) (peptide)”, the % Inhibition at 1 µM is 1% in test [2] and 0% in test [3].

As for “Re-complexed Ala-Tyr-Ile-Gln-Asn-Ala-Ala-Leu-Cys-Gly-NH2 (SEQ ID NO:151) (peptide)”, the % Inhibition at 1 µM in test [2] and in test [3] was 0% throughout.

For the substance “Re-complexed Ala-Tyr-Ile-Gln-Asn-Ala-Ala-Leu-Gly-Cys-NH2 (SEQ ID NO:150) (peptide)”, the % Inhibition at 1 µM in test [2] and in test [3] was 0% throughout.

In the case of “Re-complexed Ala-Tyr-Ile-Gln-Asn-Ala-Cys-Ala-Leu-Gly-NH2 (SEQ ID NO:154) (peptide)”, the % Inhibition at 1 µM stood at 0% in test [2] and 31% in test [3].

Consider “Re-complexed Ala-Tyr-Ile-Gln-Asn-Ala-Cys-Pro-Leu-Gly-NH2 (SEQ ID NO:153) (peptide)”, for which the values for the % Inhibition at 1 µM in test [2] and in test [3] were 0% and 2%, respectively.

Take “Re-complexed Ala-Tyr-Ile-Gln-Asn-Ala-Pro-Leu-Gly-Cys-NH2 (SEQ ID NO:149) (peptide)”: the % Inhibition at 1 µM came out at 0% in test [2] and 6% in test [3].

For the substance “Re-complexed Ala-Tyr-Ile-Gln-Asn-Cys-Ala-Pro-Leu-Gly-NH2 (SEQ ID NO:155) (peptide)”, the % Inhibition at 1 µM stood at 0% in test [2] and 42% in test [3].

For the substance “Re-complexed Ala-Tyr-Ile-Gln-Cys-Asn-Ala-Pro-Leu-Gly-NH2 (SEQ ID NO:156) (peptide)”, the % Inhibition at 1 µM in test [2] was 0%; in test [3] it was 18%.

For “Re-complexed Sar-Arg-Cys-Val-Tyr-Ile-His-Pro-Thr (SEQ ID NO:165) (peptide)”, the % Inhibition at 1 µM in test [4] worked out at 1%.

On to “Re-complexed Sar-Arg-Val-Cys-Tyr-Ile-His-Pro-Thr (SEQ ID NO:164) (peptide)”, for which, in test [4], the % Inhibition at 1 µM was determined as 1%.

As to “Re-complexed Sar-Arg-Val-Tyr-Cys-Ile-His-Pro-Thr (SEQ ID NO:163) (peptide)”, the % Inhibition at 1 µM in test [4] amounted to 12%.

Take “Re-complexed Sar-Arg-Val-Tyr-Ile-Cys-His-Pro-Thr (SEQ ID NO:162) (peptide)”: in test [4], the % Inhibition at 1 µM is 20%.

Take “Re-complexed Sar-Arg-Val-Tyr-Ile-His-Cys-Gly-Thr (SEQ ID NO:166) (peptide)”: the % Inhibition at 1 µM in test [4] came out at 11%.

In the case of “Re-complexed Sar-Arg-Val-Tyr-Ile-His-Cys-Pro-Thr (SEQ ID NO:161) (peptide)”, the % Inhibition at 1 µM in test [4] was 60%.

Consider “Re-complexed Sar-Arg-Val-Tyr-Ile-His-Gly-Cys-Thr (SEQ ID NO:160) (peptide)”, for which the % Inhibition at 1 µM in test [4] is 5%.

A word on the % Inhibition: it is the relative decrease from the control value, in per cent.
